Source: the supplement of paper PMC10724198
± gives the standard deviation of the averaged measurements.

Each sequence was assayed on Saccharomyces cerevisiae (assay: protein stability index of tFT-peptide fusion (C-terminal peptide) (PSI (0-1 scale)); higher = more stable (slower turnover)). Settings: genetic background: wild type; temperature: 37 C.
Procedure: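 MPS profiling in S. cerevisiae of the tFT-X12 degron library: putative degron peptides plus stable controls, 12 aa, fused to the C-terminus of a sfGFP-mCherry timer. Cells are FACS-sorted into 8 mCherry/sfGFP bins and deep-sequenced. PSI runs from 0 (unstable) to 1 (stable). Backgrounds are wild type, das1Δ and doa10Δ at 30 °C, and wild type, das1Δ, cdc34-1 and cdc53-1 at 37 °C; 2-3 technical replicates each.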
VVWVYSMLFSIW showed a protein stability index of 0.415 ± 0.068.
Sequence VWFFLLSFANRL has a protein stability index of 0.4845 ± 0.00053.
VWFGGFVCSVLG showed a protein stability index of 0.415 ± 0.018.
Sequence VWFGGLAVCCGG has a protein stability index of 0.43156 ± 0.00042.
Work on VWYSCWSFLVLF yielded a protein stability index of 0.362 ± 0.035.
In the case of VYRRKLDRLLCI, the protein stability index is reported as 0.275 ± 0.005.
Work on WAAVGIQLRLLF yielded a protein stability index of 0.347 ± 0.022.
WALVLLVPVWFD gave a protein stability index of 0.533 ± 0.0073.
WCAGCLGWWLQS was tested, and the protein stability index was 0.548 ± 0.012.
WCAMITVFCGSG showed a protein stability index of 0.3796 ± 0.0026.
In the case of WCAVRVWFGAAL, the protein stability index is reported as 0.56132 ± 0.00042.
In the case of WCCVFVARFFWL, the protein stability index is reported as 0.44 ± 0.008.
In the case of WEISNFFGCFIG, the protein stability index is reported as 0.552 ± 0.071.
WFFTDIVMLVRV gave a protein stability index of 0.233 ± 0.018.
WFSVFTMSILSR gave a protein stability index of 0.474 ± 0.01.
WFWVAVGVVGGG gave a protein stability index of 0.5 ± 0.0082.
WGCIFWFFDVRV was tested, and the protein stability index was 0.402 ± 0.026.
WGGEFLSLTLSS gave a protein stability index of 0.743 ± 0.025.
WGIPRRPTLFIP gave a protein stability index of 0.5193 ± 0.0044.
WHLLRFETQMFC showed a protein stability index of 0.337 ± 0.0026.
With WHVSLRFAFYVF the protein stability index was 0.263 ± 0.0032.
WIVQCCLYVPVQ gave a protein stability index of 0.356 ± 0.024.
WIYKIVTYEKKS showed a protein stability index of 0.702 ± 0.0082.
For WLGLFAFRRCLV, the protein stability index was 0.3983 ± 0.0017.
In the case of WLVIWPRKLSTV, the protein stability index is reported as 0.573 ± 0.031.
For WLVVGGVVLLVV, the protein stability index was 0.37 ± 0.0047.
With WRLRIAAVVRSS the protein stability index was 0.287 ± 0.016.
With WRVVVSCALHVC the protein stability index was 0.0863 ± 0.026.
With WSCFLLLLSLSL the protein stability index was 0.496 ± 0.011.
With WSFAPRLRCSYL the protein stability index was 0.878 ± 0.029.
With WSMSSPPLLLAS the protein stability index was 0.349 ± 0.019.
Work on WVIWFFVAACLR yielded a protein stability index of 0.311 ± 0.0079.
For WVVVGWVGVGFR, the protein stability index was 0.55387 ± 0.00053.
WVVWVLVGGFGG gave a protein stability index of 0.449 ± 0.03.
In the case of WVVWWFACVFGV, the protein stability index is reported as 0.413 ± 0.0073.
For WVYVFVSLFFVV, the protein stability index was 0.289 ± 0.0062.
Sequence WYLLCESCLLCL has a protein stability index of 0.558 ± 0.0046.
Sequence WYVRVYVLSVES has a protein stability index of 0.264 ± 0.022.
YCAAVCFWGLYC gave a protein stability index of 0.233 ± 0.011.
In the case of YDVQIEFCVVEV, the protein stability index is reported as 0.547 ± 0.019.
For YFFFFLHFNFAF, the protein stability index was 0.267 ± 0.021.
Sequence YFFFYFFLLFHL has a protein stability index of 0.429 ± 0.037.
Sequence YFWWLWMSFWVG has a protein stability index of 0.539 ± 0.013.
With YGWGFLFILTLM the protein stability index was 0.151 ± 0.016.
In the case of YHGVYLARVLQA, the protein stability index is reported as 0.501 ± 0.029.
Sequence YIFLLRFFFFFS has a protein stability index of 0.435 ± 0.022.
Sequence YILIKEVLYAVC has a protein stability index of 0.236 ± 0.0088.
With YIRINNIYWKKS the protein stability index was 0.536 ± 0.032.
YLFPHVRPKFPG gave a protein stability index of 0.721 ± 0.015.
YLVSFVAFLRLF was tested, and the protein stability index was 0.1 ± 0.019.
For YMNLYKNVISVT, the protein stability index was 0.457 ± 0.0095.
YMVESVWVLLGT showed a protein stability index of 0.564 ± 0.0079.
Work on YPFIPLIVCGFF yielded a protein stability index of 0.448 ± 0.01.
For YPVGAAFIRARA, the protein stability index was 0.5174 ± 0.0047.
YQHSRSGRNKII was tested, and the protein stability index was 0.122 ± 0.035.
With YSRFALRPQLLV the protein stability index was 0.327 ± 0.0056.
Sequence YSVNSLFCKVFG has a protein stability index of 0.5054 ± 0.002.
For YTCFLFLLRCMT, the protein stability index was 0.294 ± 0.002.
With YVDSGLTLIHLA the protein stability index was 0.334 ± 0.011.
In the case of YVQTKKTRYVLV, the protein stability index is reported as 0.5038 ± 0.0023.
With YVSIWSPILWLA the protein stability index was 0.0657 ± 0.016.
In the case of YYFCMYFKVTLC, the protein stability index is reported as 0.0707 ± 0.042.
YYFFLTFLCYVF was tested, and the protein stability index was 0.221 ± 0.011.

These sequences were tested on Saccharomyces cerevisiae in the same assay as above. Settings: genetic background: das1 deletion; temperature: 30 C.
Procedure: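 MPS profiling in S. cerevisiae of the yeast C-terminome library: the last 12 aa of each annotated ORF are fused to the C-terminus of a sfGFP-mCherry timer, after a GGGS linker. Cells are FACS-sorted into 8 mCherry/sfGFP bins and deep-sequenced. PSI runs from 0 (unstable) to 1 (stable); wild type and das1Δ backgrounds, two technical replicates each.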
For AAEAKEHMQEAN [TIF34 C-terminal 12 aa], the protein stability index was 0.732 ± 0.062.
AATAKGKGKKKK [RSM27 C-terminal 12 aa] was tested, and the protein stability index was 0.6993 ± 0.005.
ACELLFENNIDM [PHO81 C-terminal 12 aa] showed a protein stability index of 0.695 ± 0.015.
Work on “ACIFNVATASIP [YGR270C-A C-terminal 12 aa]” yielded a protein stability index of 0.719 ± 0.036.
AFGNGFNSSIRW [NRP1 C-terminal 12 aa] gave a protein stability index of 0.71 ± 0.012.

Same assay, conditions: genetic background: wild type; temperature: 30 C
For AAEAKEHMQEAN [TIF34 C-terminal 12 aa], the protein stability index was 0.69 ± 0.059.
Sequence AATAKGKGKKKK [RSM27 C-terminal 12 aa] has a protein stability index of 0.64475 ± 0.00021.
In the case of ACELLFENNIDM [PHO81 C-terminal 12 aa], the protein stability index is reported as 0.7517 ± 0.0037.
“ACIFNVATASIP [YGR270C-A C-terminal 12 aa]” showed a protein stability index of 0.692 ± 0.03.
AFGNGFNSSIRW [NRP1 C-terminal 12 aa] was tested, and the protein stability index was 0.68 ± 0.0089.

These sequences were tested on Saccharomyces cerevisiae in the same assay as above. Settings: genetic background: wild type; temperature: 30 C.
VVGVVVCWGRGW showed a protein stability index of 0.496 ± 0.046.
Sequence VVISRVLAIRLL has a protein stability index of 0.237 ± 0.0063.
VVIWWFSAVVSV was tested, and the protein stability index was 0.148 ± 0.036.
VVPVGLYSVILV was tested, and the protein stability index was 0.4269 ± 0.0008.
Work on VVSGLNYCLVLS yielded a protein stability index of 0.3917 ± 0.0038.
VVVCSLVPLFVL gave a protein stability index of 0.34 ± 0.018.
Sequence VVVVWVVVEIVR has a protein stability index of 0.169 ± 0.036.
Work on VVWVYSMLFSIW yielded a protein stability index of 0.276 ± 0.0055.
VWFFLLSFANRL showed a protein stability index of 0.476 ± 0.015.
Sequence VWFGGFVCSVLG has a protein stability index of 0.393 ± 0.039.
For VWFGGLAVCCGG, the protein stability index was 0.396 ± 0.042.
VWYSCWSFLVLF gave a protein stability index of 0.291 ± 0.024.
VYRRKLDRLLCI showed a protein stability index of 0.332 ± 0.1.
In the case of WAAVGIQLRLLF, the protein stability index is reported as 0.3323 ± 0.00057.
In the case of WALVLLVPVWFD, the protein stability index is reported as 0.471 ± 0.027.
In the case of WCAGCLGWWLQS, the protein stability index is reported as 0.415 ± 0.028.
For WCAMITVFCGSG, the protein stability index was 0.34 ± 0.016.
With WCAVRVWFGAAL the protein stability index was 0.505 ± 0.014.
WCCVFVARFFWL showed a protein stability index of 0.413 ± 0.04.
WEISNFFGCFIG was tested, and the protein stability index was 0.428 ± 0.028.
WFFTDIVMLVRV was tested, and the protein stability index was 0.273 ± 0.0098.
WFSVFTMSILSR showed a protein stability index of 0.435 ± 0.0096.
WFWVAVGVVGGG gave a protein stability index of 0.449 ± 0.014.
Sequence WGCIFWFFDVRV has a protein stability index of 0.386 ± 0.027.
WGGEFLSLTLSS showed a protein stability index of 0.684 ± 0.027.
In the case of WGIPRRPTLFIP, the protein stability index is reported as 0.434 ± 0.015.
WHLLRFETQMFC was tested, and the protein stability index was 0.172 ± 0.049.
WHVSLRFAFYVF showed a protein stability index of 0.22 ± 0.12.
WIVQCCLYVPVQ was tested, and the protein stability index was 0.377 ± 0.0076.
In the case of WIYKIVTYEKKS, the protein stability index is reported as 0.145 ± 0.049.
Sequence WLGLFAFRRCLV has a protein stability index of 0.31 ± 0.018.
In the case of WLVIWPRKLSTV, the protein stability index is reported as 0.481 ± 0.0083.
For WLVVGGVVLLVV, the protein stability index was 0.252 ± 0.0089.
Sequence WRLRIAAVVRSS has a protein stability index of 0.281 ± 0.028.
WRVVVSCALHVC showed a protein stability index of 0.085736 ± 1.1e-05.
Work on WSCFLLLLSLSL yielded a protein stability index of 0.45 ± 0.0067.
In the case of WSFAPRLRCSYL, the protein stability index is reported as 0.809 ± 0.055.
WSMSSPPLLLAS showed a protein stability index of 0.36 ± 0.0058.
WVIWFFVAACLR gave a protein stability index of 0.3339 ± 0.00096.
Sequence WVVVGWVGVGFR has a protein stability index of 0.445 ± 0.029.
WVVWVLVGGFGG gave a protein stability index of 0.384 ± 0.032.
With WVVWWFACVFGV the protein stability index was 0.309 ± 0.049.
With WVYVFVSLFFVV the protein stability index was 0.263 ± 0.0029.
WYLLCESCLLCL gave a protein stability index of 0.494 ± 0.0075.
WYVRVYVLSVES gave a protein stability index of 0.237 ± 0.019.
YCAAVCFWGLYC was tested, and the protein stability index was 0.242 ± 0.024.
YDVQIEFCVVEV gave a protein stability index of 0.442 ± 0.0093.
Work on YFFFFLHFNFAF yielded a protein stability index of 0.2803 ± 0.002.
YFFFYFFLLFHL was tested, and the protein stability index was 0.375 ± 0.071.
In the case of YFWWLWMSFWVG, the protein stability index is reported as 0.4702 ± 0.0044.
YGWGFLFILTLM gave a protein stability index of 0.182 ± 0.01.
Work on YHGVYLARVLQA yielded a protein stability index of 0.45 ± 0.041.
YIFLLRFFFFFS was tested, and the protein stability index was 0.358 ± 0.028.
With YILIKEVLYAVC the protein stability index was 0.274 ± 0.018.
For YIRINNIYWKKS, the protein stability index was 0.399 ± 0.029.
YLFPHVRPKFPG was tested, and the protein stability index was 0.488 ± 0.091.
YLVSFVAFLRLF was tested, and the protein stability index was 0.143 ± 0.19.
Sequence YMNLYKNVISVT has a protein stability index of 0.408 ± 0.057.
YMVESVWVLLGT gave a protein stability index of 0.49 ± 0.016.
YPFIPLIVCGFF showed a protein stability index of 0.404 ± 0.02.
Work on YPVGAAFIRARA yielded a protein stability index of 0.491 ± 0.011.
Sequence YQHSRSGRNKII has a protein stability index of 0.235 ± 0.012.
YSRFALRPQLLV gave a protein stability index of 0.285 ± 0.011.
For YSVNSLFCKVFG, the protein stability index was 0.417 ± 0.032.
For YTCFLFLLRCMT, the protein stability index was 0.292 ± 0.003.
YVDSGLTLIHLA was tested, and the protein stability index was 0.297 ± 0.021.
In the case of YVQTKKTRYVLV, the protein stability index is reported as 0.454 ± 0.055.
In the case of YVSIWSPILWLA, the protein stability index is reported as 0.117 ± 0.024.
YYFCMYFKVTLC was tested, and the protein stability index was 0.0781 ± 0.03.
YYFFLTFLCYVF was tested, and the protein stability index was 0.207 ± 0.018.
